This data set concerns the molecule itself. As to the kind of experiment: native gel or EMSA; blue native PAGE (4-16% NativePAGE Novex Bis-Tris, G-250, pH 7, 4°C) of proteins immunoprecipitated from digitonin lysate of mouse brain; blot with anti-Kv12.2; size of the Kv12.2 complex.

B1: Kv12.2 channel (natural protein, mouse (endogenous in mouse brain), UniProt Q9WVJ0 1-1095, looked up)
chain: MPAMRGLLAPQNTFLDTIATRFDGTHSNFVLGNAQVAGLFPVVYCSDGFCDLTGFSRAEVMQRGCACSFLYGPDTSELVRQQIRKALDEHKEFKAELILYRKSGLPFWCLLDVIPIKNEKGEVALFLVSHKDISETKNRGGPDNWKERGGGRRRYGRAGSKGFNANRRRSRAVLYHLSGHLQKQPKGKHKLNKGVFGEKPNLPEYKVAAIRKSPFILLHCGALRATWDGFILLATLYVAVTVPYSVCVSTAREPSAARGPPSVCDLAVEVLFILDIVLNFRTTFVSKSGQVVFAPKSICLHYVTTWFLLDVIAALPFDLLHAFKVNVYVGAHLLKTVRLLRLLRLLPRLDRYSQYSAVVLTLLMAVFALLAHWVACVWFYIGQQEIESSESELPEIGWLQELARRLETPYYLVSRSPDGGNSSGQSENCSSSSSSSGSGGGRGSEANGTGLELLGGPSLRSAYITSLYFALSSLTSVGFGNVSANTDTEKIFSICTMLIGALMHAVVFGNVTAIIQRMYARRFLYHSRTRDLRDYIRIHRIPKPLKQRMLEYFQATWAVNNGIDTTELLQSLPDELRADIAMHLHKEVLQLPLFEAASRGCLRALSLALRPAFCTPGEYLIHQGDALQALYFVCSGSMEVLKGGTVLAILGKGDLIGCELPQREQVVKANADVKGLTYCVLQCLQLAGLHESLALYPEFAPRFSRGLRGELSYNLGAGGVSAEVDTSSLSGDNTLMSTLEEKETDGEQGHTVSPAPADEPSSPLLSPGCTSSSSAAKLLSPRRTAPRPRLGGRGRPSRAGVLKPEAGPSAHPRSLDGLQLPPMPWNVPPDLSPRVVDGIEDGCSSDQPKFSFRVGQSGPECSSSPSPGTESGLLTVPLGPSEARNTDTLDKLRQAVMELSEQVLQMREGLQSLRQAVQLILVPQGEGQCPRGSGEEPCPATASGLLQPLRVDTGASSYCLQPPAGSVLSGTWPHPRPGQPPPLMAPWPWGPPASQSSPWPRATALWTSTSDSEPPGSGDLCSEPSTPASPPPSEEGARTGTPAPVSQAEATSTGEPPPGPGGRALPWDPHSLEMVLIGCHGPGTVQWTQEEGTGV
notes: Kv12.2 (ELK2, KCNH3) voltage-gated potassium channel alpha subunit, mouse, endogenous in brain; about 120 kDa monomer on a denaturing gel, about 500 kDa complex on a native gel; also called ELK2; KCNH3; source: endogenous, mouse brain membrane lysate (0.5% Igepal) or whole mouse brain lysate (1% digitonin)
For the protein B1, the “stoichiometry N” value was found to be 4.

These data come from publication PMC2710002, “KCNE1 and KCNE3 β-Subunits Regulate Membrane Surface Expression of Kv12.2 K^+ Channels In Vitro and Form a Tripartite Complex In Vivo” (PLoS ONE, 2009).
